Source: PMC11005723, “Development of Complementary Photo‐arginine/lysine to Promote Discovery of Arg/Lys hPTMs Interactomes” (Advanced Science, 2024)
Non-standard residues stand in square brackets, D forms with d. Primed or numbered codes have the meaning given here. No end group written: not given here. *: point of attachment. R(dz)″ = photo-arginine carrying a diazirine photo-crosslinker; Biotin = O=C1N[C@H]2[C@H](CS[C@H]2CCCCC(=O)*)N1

Molecular target: PHD domain of UHRF1 (UHRF1PHD)
Experiment: ITC; 25 °C, MicroCal PEAQ-ITC; protein in the cell titrated with 19 injections of peptide

B1: H3K4‐R2dz (probe 1) (peptide)
peptide: A[R(dz)″]TKQTARKSTGGK(Biotin)A-NH2
- Kd: 10.6 µM
